This is an account of results in patent US20210324111A1 (UCB, published 2021).

In this assay the target is T1, Human serum albumin (human, UniProt P02768 25-609).
T1 construct: Bought purified protein, injected as the analyte in SPR; also called HSA; Human albumin, ChromPure (Jackson ImmunoResearch)
Kind of assay: SPR (Biacore), antibody captured on the chip, HSA as analyte, 25 C, 1:1 model. Background: Surface plasmon resonance follows binding to a sensor surface in real time, without labels.

Usually Kd stands for the free concentration of one partner at which half of the binding sites on the other are occupied at equilibrium, for simple one-to-one binding. Low readings indicate higher affinity, high ones lower affinity. The koff is the first-order rate constant of dissociation. As usually defined, the kon is the rate constant with which the complex forms. Read a low kon as slower complex formation.

Where a chain is given by its changes, count along the chain named.

B1: 645gL4gH5 Fab-A26 BYbe wt (bispecific antibody, part only; not given: A26 dsscFv, linker, CH1, CL, V domains shown, not shown: another chain or arm of the molecule; a dimerising Fc or GST; small tags and cut ends)
VH: EVQLLESGGGLVQPGGSLRLSCAVSGIDLSNYAINWVRQAPGKQLEWIGIIWASGTTFYATWAKGRFTISRDNSKNTVYLQMNSLRAEDTAVYYCARTVPGYSTAPYFDLWGQGTLVTVSS
VL: DIQMTQSPSSVSASVGDRVTITCQSSPSVWSNFLSWYQQKPGKAPKLLIYEASKLTSGVPSRFSGSGSGTDFTLTISSLQPEDFATYYCGGGYSSISDTTFGGGTKVEIK
B1: the Kd is 1.61 nM, the koff amounted to 0.00025 s⁻¹ and the kon was determined as 156000 M⁻¹ s⁻¹.

B2: 645CDR-497FW Fab nh (Fab, V domains shown)
VH: EVQLVESGGGLVKPGGSLRLSCAASGIDLSNYAINWVRQAPGKGLEWVGIIWASGTTFYATWAKGRFTISRDDSKNTLYLQMNSLKTEDTAVYYCTTTVPGYSTAPYFDLWGQGTLVTVSS
VL: B1 VL with D1A, M4L, V11L, G103Q
notes: also called 497FW/645CDR Fab nh; 645CDR -497FW/645CDR Fab nh
For B2, the Kd came to 4.63 nM, the koff came out at 0.000601 s⁻¹ and the kon amounted to 130000 M⁻¹ s⁻¹.

B3: 645CDR-2109FW Fab-A26 ds HL BYbe (bispecific antibody, part only; not given: A26 dsscFv, linker, CH1, CL, V domains shown, not shown: another chain or arm of the molecule; a dimerising Fc or GST; small tags and cut ends)
VH: B2 VH with V48I, R71V, D73K, S74A, T77S, L78A, K86R, T87A, T97R
VL: B1 VL with V11L, A44V, S66T, F72Y, F84V, Y88F, G103Q, V107L
For the molecule B3, the Kd is 4.74 nM, the koff was determined as 0.000651 s⁻¹ and the kon came out at 137000 M⁻¹ s⁻¹.

B4: 645CDR-2109FW Fab nh (Fab, V domains shown)
VH: B2 VH with V48I, R71V, D73K, S74A, T77S, L78A, K86R, T87A, T97R
VL: B1 VL with V11L, A44V, S66T, F72Y, F84V, Y88F, G103Q, V107L
notes: also called 2109FW/645CDR Fab nh; #3
Regarding B4, the Kd was determined as 1.52 nM, the koff was determined as 0.000227 s⁻¹ and the kon was determined as 150000 M⁻¹ s⁻¹.

B5: 645CDR-497FW Fab-A26 ds HL BYbe (bispecific antibody, part only; not given: A26 dsscFv, linker, CH1, CL, V domains shown, not shown: another chain or arm of the molecule; a dimerising Fc or GST; small tags and cut ends)
VH: B2 VH
VL: B1 VL with D1A, M4L, V11L, G103Q
As for B5, the Kd turned out to be 1.23 nM, the koff amounted to 0.000186 s⁻¹ and the kon was found to be 151000 M⁻¹ s⁻¹.
